Assay results as given in patent USRE47150 (Bayer, dated 2018).
Residue numbers refer to the chain shown, from its start. Names may count otherwise.

T1: human tissue factor pathway inhibitor (TFPI) (human, UniProt P10646 29-304, limits assumed)
T1 construct: bought; also called hTFPI; human TFPI
T1 sequence (looked up): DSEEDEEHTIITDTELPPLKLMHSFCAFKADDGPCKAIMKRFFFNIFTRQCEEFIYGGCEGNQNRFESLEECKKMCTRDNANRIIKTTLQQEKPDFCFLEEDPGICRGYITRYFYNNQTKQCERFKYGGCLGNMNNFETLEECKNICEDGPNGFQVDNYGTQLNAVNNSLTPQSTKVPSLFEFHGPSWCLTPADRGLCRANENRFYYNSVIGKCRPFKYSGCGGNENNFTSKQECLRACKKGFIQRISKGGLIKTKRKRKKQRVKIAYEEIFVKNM

T2: mouse tissue factor pathway inhibitor (TFPI) (mouse, UniProt O54819 29-289, limits assumed)
T2 construct: bought; also called mTFPI; murine TFPI
T2 sequence (looked up): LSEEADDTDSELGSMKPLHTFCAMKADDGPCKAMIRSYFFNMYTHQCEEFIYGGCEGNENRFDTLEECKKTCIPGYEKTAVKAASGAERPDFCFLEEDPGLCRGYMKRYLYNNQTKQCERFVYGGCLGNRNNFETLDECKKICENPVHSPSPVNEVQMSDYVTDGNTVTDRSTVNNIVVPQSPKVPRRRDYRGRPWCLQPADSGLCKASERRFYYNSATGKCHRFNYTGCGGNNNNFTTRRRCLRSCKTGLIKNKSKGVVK

B1: 2A8 HC G33A+S35D+S55R+K99L/LC Y48F+N51V+D91W (Fab, V domains shown)
VH: QVQLVESGGGLVQPGGSLRLSCAASGFTFRSYAMDWVRQAPGKGLEWVSSIRGSRSSTYYADSVKGRFTISRDNSKNTLYLQMNSLRAEDTAVYYCARLYRYWFDYWGQGTLVTVSS
VL: DIELTQPPSVSVAPGQTARISCSGDNLRNYYAHWYQQKPGQAPVVVIFYDVNRPSGIPERFSGSNSGNTATLTISGTQAEDEADYYCQSWWDGVPVFGGGTKLTVLG
B2: 2A8 HC G33P+I51D+S54F/LC Y48F+N51V+V96W (Fab, V domains shown)
VH: B1 VH with A33P, D35S, I51D, S54F, R55S, L99K
VL: B1 VL with W91D, V96W
B3: 2A8 HC G33P+S35D+S54F+K99L/LC Y48F+N52G (Fab, V domains shown)
VH: B1 VH with A33P, S54F, R55S
VL: B1 VL with V51N, N52G, W91D
B4: 2A8 HC I51D+S54F+K99L/LC D91W (Fab, V domains shown)
VH: B1 VH with A33G, D35S, I51D, S54F, R55S
VL: B1 VL with F48Y, V51N
B5: 2A8 HC M34I+S35D+S55R+K99L/LC Y48F+N51V+D91W (Fab, V domains shown)
VH: B1 VH with A33G, M34I
VL: B1 VL
B6: 2A8 HC M34K+S35D+S55R+K99L/LC Y48F+N51V+D91W (Fab, V domains shown)
VH: B1 VH with A33G, M34K
VL: B1 VL
B7: 2A8 HC Q1E+R30S+S35D+S55G+S56G+K99L/LC Y48F+D91L+V96W (Fab, V domains shown)
VH: B1 VH with Q1E, R30S, A33G, R55G, S56G
VL: B1 VL with V51N, W91L, V96W
B8: 2A8 HC Q1E+R30S+S35D+S55R+S56G+K99L/LC Y48F+N51V+D91W (Fab, V domains shown)
VH: B1 VH with Q1E, R30S, A33G, S56G
VL: B1 VL
B9: 2A8 HC Q1E+S31V+S50A+I51D+S55R+S56G+K99V/LC Y48F+D91L+V96W (Fab, V domains shown)
VH: B1 VH with Q1E, S31V, A33G, D35S, S50A, I51D, S56G, L99V
VL: B1 VL with V51N, W91L, V96W
B10: 2A8 HC Q1E+S35D+S55R+K99L/LC Y48F+N51V+D91W (Fab, V domains shown)
VH: B1 VH with Q1E, A33G
VL: B1 VL
B11: 2A8 HC R30S+S31V+I51D+S55R+K99V/LC Y48F+D91L+V96W (Fab, V domains shown)
VH: B1 VH with R30S, S31V, A33G, D35S, I51D, L99V
VL: B1 VL with V51N, W91L, V96W
B12: 2A8 HC R30S+S35D+S55R+K99L/LC Y48F+N51V+D91W (Fab, V domains shown)
VH: B1 VH with R30S, A33G
VL: B1 VL
B13: 2A8 HC S31V+G33A+I51D+S55R+K99V/LC Y48F+D91L+V96W (Fab, V domains shown)
VH: B1 VH with S31V, D35S, I51D, L99V
VL: B1 VL with V51N, W91L, V96W
B14: 2A8 HC S31V+G33P+I51D+S54F+K99V/LC Y48F+N51V+D91W (Fab, V domains shown)
VH: B1 VH with S31V, A33P, D35S, I51D, S54F, R55S, L99V
VL: B1 VL
B15: 2A8 HC S31V+G33P+S35D/LC Y48F+D91L+V96W (Fab, V domains shown)
VH: B1 VH with S31V, A33P, R55S, L99K
VL: B1 VL with V51N, W91L, V96W
B16: 2A8 HC S31V+G33P+S35D/LC Y48F+N51V+D91L (Fab, V domains shown)
VH: B1 VH with S31V, A33P, R55S, L99K
VL: B1 VL with W91L
B17: 2A8 HC S31V+I51D+R52S+S55R+K99V/LC Y48F+D91L+V96W (Fab, V domains shown)
VH: B1 VH with S31V, A33G, D35S, I51D, R52S, L99V
VL: B1 VL with V51N, W91L, V96W
B18: 2A8 HC S31V+I51D+S54F+K99V/LC Y48F+N51V (Fab, V domains shown)
VH: B1 VH with S31V, A33G, D35S, I51D, S54F, R55S, L99V
VL: B1 VL with W91D
B19: 2A8 HC S31V+I51D+S55R+K99L/LC Y48F+N52G+D91L+V96W (Fab, V domains shown)
VH: B1 VH with S31V, A33G, D35S, I51D
VL: B1 VL with V51N, N52G, W91L, V96W
B20: 2A8 HC S31V+I51D+S55R+S56G+K99V/LC Y48F+D91L+V96W (Fab, V domains shown)
VH: B1 VH with S31V, A33G, D35S, I51D, S56G, L99V
VL: B1 VL with V51N, W91L, V96W
B21: 2A8 HC S31V+I51D+S55R/LC Y48F+N51V+D91L (Fab, V domains shown)
VH: B1 VH with S31V, A33G, D35S, I51D, L99K
VL: B1 VL with W91L
B22: 2A8 HC S31V+I51E+S55R+K99V/LC Y48F+D91L+V96W (Fab, V domains shown)
VH: B1 VH with S31V, A33G, D35S, I51E, L99V
VL: B1 VL with V51N, W91L, V96W
B23: 2A8 HC S31V+K99V/LC N51V+D91W (Fab, V domains shown)
VH: B1 VH with S31V, A33G, D35S, R55S, L99V
VL: B1 VL with F48Y
B24: 2A8 HC S31V+S35D+I51D+K99V/LC Y48F+D91K (Fab, V domains shown)
VH: B1 VH with S31V, A33G, I51D, R55S, L99V
VL: B1 VL with V51N, W91K
B25: 2A8 HC S31V+S35D+S54F/LC Y48F+D91L+V96W (Fab, V domains shown)
VH: B1 VH with S31V, A33G, S54F, R55S, L99K
VL: B1 VL with V51N, W91L, V96W
B26: 4B7 HC Q1E+N32D+G44S+K55Y+D62R+Y112D/LC S32R+D33F+N35I+D97T (Fab, V domains shown)
VH: EVQLQQSGPGLVKPSQTLSLTCAISGDSVSSDSAAWSWIRQSPSRGLEWLGIIYYRSKWYNRYAVSVKSRITINPDTSKNQFSLQLNSVTPEDTAVYYCARWHSDKHWGFDDWGQGTLVTVSS
VL: DIVMTQSPLSLPVTPGEPASISCRSSQSLVFRFGITYLNWYLQKPGQSPQLLIYKGSNRASGVPDRFSGSGSGTDFTLKISRVEAEDVGVYYCQQYTSYPLTFGQGTKVEIKR
B27: 4B7 HC Q1E+N32D+G44S+K55Y+D62R+Y112D/LC V30L+S32R+D33F+N35I+T36N+D97T (Fab, V domains shown)
VH: B26 VH
VL: B26 VL with V30L, T36N
B28: 4B7 HC Q1E+N32D+G44S+K55Y+D62R+Y112D/LC V30L+S32R+N35I+T36N (Fab, V domains shown)
VH: B26 VH
VL: B26 VL with V30L, F33D, T36N, T97D

Assays:
Assay in all cases: competitive ELISA
[1] = target: T1, human tissue factor pathway inhibitor …
[2] = target: T2, mouse tissue factor pathway inhibitor …
[3] = target: T1, human tissue factor pathway inhibitor …; remark: listed apart in the source
[4] = target: T2, mouse tissue factor pathway inhibitor …; remark: listed apart in the source

Binder | variant/HC_K99L [1] [ratio] | variant/HC_K99L [2] [ratio] | variant/HC_D62R [3] [ratio] | variant/HC_D62R [4] [ratio]
B1 | 16 | 14.7 |  | 
B2 | 0.6 | 0.4 |  | 
B3 | 6.2 | 2.3 |  | 
B4 | 6.2 | 5.3 |  | 
B5 | 19.6 | 18.1 |  | 
B6 | 11.2 | 11.6 |  | 
B7 | 13.6 | 10.6 |  | 
B8 | 11.9 | 9.3 |  | 
B9 | 12.1 | 7.7 |  | 
B10 | 20.9 | 20.3 |  | 
B11 | 13.5 | 6.5 |  | 
B12 | 17.9 | 19.1 |  | 
B13 | 9 | 4.7 |  | 
B14 | 6.6 | 5.9 |  | 
B15 | 22.5 | 5.9 |  | 
B16 | 12.2 | 11.7 |  | 
B17 | 11.7 | 7.9 |  | 
B18 | 8.1 | 2.2 |  | 
B19 | 0.4 | 0.1 |  | 
B20 | 16.2 | 12.1 |  | 
B21 | 8.4 | 6.5 |  | 
B22 | 9.2 | 7 |  | 
B23 | 6.7 | 5.6 |  | 
B24 | 0.6 | 0.1 |  | 
B25 | 5.4 | 4.2 |  | 
B26 |  |  | 26.3 | 45.1
B27 |  |  | 20.4 | 29.4
B28 |  |  | 23 | 9.9
